From patent US20060263802A1 (CRUCELL HOLLAND B V, published 2006)

Legend:
Experiment in all cases: PEPSCAN ELISA, looped 15-mer, 10 ug/ml
[1] = target: looped peptide … (rabies virus strain ERA)
[2] = target: looped peptide … (rabies virus strain ERA); remark: listed apart in the source
[3] = target: looped peptide … (rabies virus strain ERA); remark: listed apart in the source
[4] = target: looped peptide … (rabies virus strain ERA); remark: listed apart in the source
[5] = target: looped peptide … (rabies virus strain ERA); remark: listed apart in the source
[6] = target: looped peptide … (rabies virus strain ERA); remark: listed apart in the source
[7] = target: looped peptide … (rabies virus strain ERA); remark: listed apart in the source
[8] = target: looped peptide … (rabies virus strain ERA); remark: listed apart in the source
[9] = target: looped peptide … (rabies virus strain ERA); remark: listed apart in the source
[10] = target: looped peptide … (rabies virus strain ERA); remark: listed apart in the source
[11] = target: looped peptide … (rabies virus strain ERA); remark: listed apart in the source
[12] = target: looped peptide … (rabies virus strain ERA); remark: listed apart in the source
[13] = target: looped peptide … (rabies virus strain ERA); remark: listed apart in the source
[14] = target: looped peptide … (rabies virus strain ERA); remark: listed apart in the source
[15] = target: looped peptide … (rabies virus strain ERA); remark: listed apart in the source
[16] = target: looped peptide … (rabies virus strain ERA); remark: listed apart in the source
[17] = target: looped peptide … (rabies virus strain ERA); remark: listed apart in the source
[18] = target: looped peptide … (rabies virus strain ERA); remark: listed apart in the source
[19] = target: looped peptide … (rabies virus strain ERA); remark: listed apart in the source
[20] = target: looped peptide … (rabies virus strain ERA); remark: listed apart in the source
[21] = target: looped peptide … (rabies virus strain ERA); remark: listed apart in the source
[22] = target: looped peptide … (rabies virus strain ERA); remark: listed apart in the source
[23] = target: looped peptide … (rabies virus strain ERA); remark: listed apart in the source
[24] = target: looped peptide … (rabies virus strain ERA); remark: listed apart in the source
[25] = target: looped peptide … (rabies virus strain ERA); remark: listed apart in the source
[26] = target: looped peptide … (rabies virus strain ERA); remark: listed apart in the source
[27] = target: looped peptide … (rabies virus strain ERA); remark: listed apart in the source
[28] = target: looped peptide … (rabies virus strain ERA); remark: listed apart in the source
[29] = target: looped peptide … (rabies virus strain ERA); remark: listed apart in the source
[30] = target: looped peptide … (rabies virus strain ERA); remark: listed apart in the source
[31] = target: looped peptide … (rabies virus strain ERA); remark: listed apart in the source
[32] = target: looped peptide … (rabies virus strain ERA); remark: listed apart in the source
[33] = target: looped peptide … (rabies virus strain ERA); remark: listed apart in the source
[34] = target: looped peptide … (rabies virus strain ERA); remark: listed apart in the source
[35] = target: looped peptide … (rabies virus strain ERA); remark: listed apart in the source
[36] = target: looped peptide … (rabies virus strain ERA); remark: listed apart in the source
[37] = target: looped peptide … (rabies virus strain ERA); remark: listed apart in the source
[38] = target: looped peptide … (rabies virus strain ERA); remark: listed apart in the source
[39] = target: looped peptide … (rabies virus strain ERA); remark: listed apart in the source
[40] = target: looped peptide … (rabies virus strain ERA); remark: listed apart in the source
[41] = target: looped peptide … (rabies virus strain ERA); remark: listed apart in the source
[42] = target: looped peptide … (rabies virus strain ERA); remark: listed apart in the source
[43] = target: looped peptide … (rabies virus strain ERA); remark: listed apart in the source
[44] = target: looped peptide … (rabies virus strain ERA); remark: listed apart in the source
[45] = target: looped peptide … (rabies virus strain ERA); remark: listed apart in the source
[46] = target: looped peptide … (rabies virus strain ERA); remark: listed apart in the source
[47] = target: looped peptide … (rabies virus strain ERA); remark: listed apart in the source
[48] = target: looped peptide … (rabies virus strain ERA); remark: listed apart in the source
[49] = target: looped peptide … (rabies virus strain ERA); remark: listed apart in the source
[50] = target: looped peptide … (rabies virus strain ERA); remark: listed apart in the source
[51] = target: looped peptide … (rabies virus strain ERA); remark: listed apart in the source
[52] = target: looped peptide … (rabies virus strain ERA); remark: listed apart in the source
[53] = target: looped peptide … (rabies virus strain ERA); remark: listed apart in the source
[54] = target: looped peptide … (rabies virus strain ERA); remark: listed apart in the source
[55] = target: looped peptide … (rabies virus strain ERA); remark: listed apart in the source
[56] = target: looped peptide … (rabies virus strain ERA); remark: listed apart in the source
[57] = target: looped peptide … (rabies virus strain ERA); remark: listed apart in the source
[58] = target: looped peptide … (rabies virus strain ERA); remark: listed apart in the source
[59] = target: looped peptide … (rabies virus strain ERA); remark: listed apart in the source
[60] = target: looped peptide … (rabies virus strain ERA); remark: listed apart in the source
[61] = target: looped peptide … (rabies virus strain ERA); remark: listed apart in the source
[62] = target: looped peptide … (rabies virus strain ERA); remark: listed apart in the source
[63] = target: looped peptide … (rabies virus strain ERA); remark: listed apart in the source
[64] = target: looped peptide … (rabies virus strain ERA); remark: listed apart in the source
[65] = target: looped peptide … (rabies virus strain ERA); remark: listed apart in the source
[66] = target: looped peptide … (rabies virus strain ERA); remark: listed apart in the source
[67] = target: looped peptide … (rabies virus strain ERA); remark: listed apart in the source
[68] = target: looped peptide … (rabies virus strain ERA); remark: listed apart in the source
[69] = target: looped peptide … (rabies virus strain ERA); remark: listed apart in the source
[70] = target: looped peptide … (rabies virus strain ERA); remark: listed apart in the source
[71] = target: looped peptide … (rabies virus strain ERA); remark: listed apart in the source
[72] = target: looped peptide … (rabies virus strain ERA); remark: listed apart in the source
[73] = target: looped peptide … (rabies virus strain ERA); remark: listed apart in the source
[74] = target: looped peptide … (rabies virus strain ERA); remark: listed apart in the source
[75] = target: looped peptide … (rabies virus strain ERA); remark: listed apart in the source
[76] = target: looped peptide … (rabies virus strain ERA); remark: listed apart in the source
[77] = target: looped peptide … (rabies virus strain ERA); remark: listed apart in the source
[78] = target: looped peptide … (rabies virus strain ERA); remark: listed apart in the source
[79] = target: looped peptide … (rabies virus strain ERA); remark: listed apart in the source
[80] = target: looped peptide … (rabies virus strain ERA); remark: listed apart in the source
[81] = target: looped peptide … (rabies virus strain ERA); remark: listed apart in the source
[82] = target: looped peptide … (rabies virus strain ERA); remark: listed apart in the source
[83] = target: looped peptide … (rabies virus strain ERA); remark: listed apart in the source
[84] = target: looped peptide … (rabies virus strain ERA); remark: listed apart in the source
[85] = target: looped peptide … (rabies virus strain ERA); remark: listed apart in the source
[86] = target: looped peptide … (rabies virus strain ERA); remark: listed apart in the source
[87] = target: looped peptide … (rabies virus strain ERA); remark: listed apart in the source
[88] = target: looped peptide … (rabies virus strain ERA); remark: listed apart in the source
[89] = target: looped peptide … (rabies virus strain ERA); remark: listed apart in the source
[90] = target: looped peptide … (rabies virus strain ERA); remark: listed apart in the source
[91] = target: looped peptide … (rabies virus strain ERA); remark: listed apart in the source
[92] = target: looped peptide … (rabies virus strain ERA); remark: listed apart in the source
[93] = target: looped peptide … (rabies virus strain ERA); remark: listed apart in the source
[94] = target: looped peptide … (rabies virus strain ERA); remark: listed apart in the source
[95] = target: looped peptide … (rabies virus strain ERA); remark: listed apart in the source
[96] = target: looped peptide … (rabies virus strain ERA); remark: listed apart in the source
[97] = target: looped peptide … (rabies virus strain ERA); remark: listed apart in the source
[98] = target: looped peptide … (rabies virus strain ERA); remark: listed apart in the source

B1: human monoclonal antibody CRJA (antibody, V domains shown)
VH: EVQLLESGGGLVQPGGSLRLSCAASGFTFSNYAMSWVRQAPGKGLEWVSAISASGHSTYLADSVKGRFTISRDNSKNTLYLQMNSLRAEDTAVYYCAKDREVTMIVVLNGGFDYWGQGTRVTVSS
VL: EIVLTQSPATLSLSPGERATLACRASQTASRYLAWYQQKPGQAPRLLIYDTSNRATGIPARFSGSGSGTDFTLSISSLEPEDFAVYYCQQRFNWPWTFGQGTKVEFK
OD value [1]: 55
OD value [2]: 108
OD value [3]: 69
OD value [4]: 129
OD value [5]: 90
OD value [6]: 100
OD value [7]: 90
OD value [8]: 62
OD value [9]: 104
OD value [10]: 72
OD value [11]: 104
OD value [12]: 57
OD value [13]: 125
OD value [14]: 49
OD value [15]: 41
OD value [16]: 92
OD value [17]: 90
OD value [18]: 90
OD value [19]: 84
OD value [20]: 90
OD value [21]: 56
OD value [22]: 90
OD value [23]: 96
OD value [24]: 90
OD value [25]: 118
OD value [26]: 93
OD value [27]: 73
OD value [28]: 93
OD value [29]: 98
OD value [30]: 100
OD value [31]: 79
OD value [32]: 92
OD value [33]: 88
OD value [34]: 100
OD value [35]: 100
OD value [36]: 71
OD value [37]: 59
OD value [38]: 83
OD value [39]: 96
OD value [40]: 96
OD value [41]: 51
OD value [42]: 71
OD value [43]: 92
OD value [44]: 87
OD value [45]: 46
OD value [46]: 94
OD value [47]: 112
OD value [48]: 86
OD value [49]: 72
OD value [50]: 120
OD value [51]: 88
OD value [52]: 49
OD value [53]: 113
OD value [54]: 93
OD value [55]: 75
OD value [56]: 88
OD value [57]: 104
OD value [58]: 93
OD value [59]: 64
OD value [60]: 110
OD value [61]: 113
OD value [62]: 51
OD value [63]: 98
OD value [64]: 113
OD value [65]: 123
OD value [66]: 90
OD value [67]: 90
OD value [68]: 88
OD value [69]: 110
OD value [70]: 66
OD value [71]: 104
OD value [72]: 80
OD value [73]: 96
OD value [74]: 88
OD value [75]: 108
OD value [76]: 93
OD value [77]: 100
OD value [78]: 74
OD value [79]: 110
OD value [80]: 92
OD value [81]: 78
OD value [82]: 84
OD value [83]: 104
OD value [84]: 92
OD value [85]: 50
OD value [86]: 100
OD value [87]: 45
OD value [88]: 113
OD value [89]: 94
OD value [90]: 82
OD value [91]: 86
OD value [92]: 71
OD value [93]: 43
OD value [94]: 110
OD value [95]: 82
OD value [96]: 105
OD value [97]: 92
OD value [98]: 96
